Measurements: the nanobody polyreactivity screen of Harvey et al. (2022)

experiment: yeast display, Sf9 membrane polyspecificity reagent, FACS + sequencing; frameworks hold sequencing errors
Outline: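 A synthetic nanobody library was expressed on Saccharomyces cerevisiae BJ5465 by galactose induction for 36–48 hours. The library was stained for 1 hour at 4 °C with 10% biotinylated, detergent-solubilized Sf9 membrane reagent and enriched with streptavidin microbeads before FACS. Low and high (top ~1%) gates were set on anti-HA fluorescence for expression and streptavidin fluorescence for reagent binding, and each polyreactivity label reflects the gate of origin.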

| Sequence | polyreactivity (PSR sort gate) |
| --- | --- |
| QVQLVESGGGLVQAGGSLRLSCAASGLTFIKYAMGWYRQAPGKEREFVADISKRGGTTYYADSVKGRFTISRDTEKNTVYLQMNSLKPEDTAVYYCAARQYLNVYYRYDYWGQGTQVTVSS | high polyreactivity |
| QVQLVESGGGLVQAGGSLRLSCAASGSTFYPYAMGWYRQAPGKERELVAAISSRDGRTYYADSVKGRFTISRDNAKNTVYLQMNSLKPEDTAVYYCAAVRALRKVRDYYYWGQGTQVTVSS | high polyreactivity |
| QVQLVESVGGLVQEGGSLRLSCDASGSIFLYAMGWYRQAPGKERELVAAINRGGGSTYYADSVKGRFTISRDNAKNTVYLEMNSLKPEVTAVYYCAVVYLLPRYWWRYDYWGQGTQVTVSS | low polyreactivity |
| QVQLVESGGGLVQAGGSLRLSCAPSGRIFYSYAMGWYRQAPGKVRELVAAIRSRGGSTRYADSVKGRFTISRDNAKNNVYLQMNSLKPEDTAVYYCAATGYQSRGSSDYWGQGTQVSVSS | high polyreactivity |
| QDHLVESGGGLVQAGGSLRLSCAASGITFVYYYMGWYRTAPGKERELVAAISSDGSTYYADSVKGRFTISRDNAKNTVYLQMNSLKPEDTAVYYCNAVAIVPYFYVVYDIFDYWGQVTQVTVSS | low polyreactivity |
| QVQLVESGGGLVQAGGSLRLSCAASGFTFSYYAMGWYRQAPGKERELVARISFSGTRTYYADSVKGRFTISRDNAKNTVYLQMNSLKQEDTAVYYCAARLGYVGITARYDYWGQGTQVTVSS | high polyreactivity |
| QVQLVESGGGLVQAGGSLRLSCADSGITFGLYAMGWYRQAPGKERELVAAISSSGGRTYYADSVKGRFTISRDIAKKTVYLQMYSLKPEDTAVYVCATDTDGFAANRPAGDGDWGQGTQVTVSS | high polyreactivity |
| QVQLVESGGGLVQAGGSLRLSCAASGRTFGYYGMGWYRQAPGKERELVASINFSSGSTFYADSVKGRFTISRDNAKNTVYLQMNSLKPEDTAVYYCAARAKAVRSYAYNYWGQGTQVTVSS | low polyreactivity |
| QVQLVESGGGLVQAGGSIRLSCAASGGTFGYYVMGWYRQAPRKERELVAAITSGGSTKYADSVKGRFTISRDNAKNTVYLQMNSLKPEDTAVYYCAADVTRREPYQSYDYWGQGTQVTVSS | low polyreactivity |
| QVQLVESGGGLVQAGGSLRLSCAASGSIFSENTMGWYRPAPGKKRELVADITSGGSTNYADSVKGRFTISRDNAKKTVYLQMNSLKPEDTAVYYCAADYNGEYDYWGLGTQVTVSS | low polyreactivity |
| QVQLVESGGGLVQAGGSLRLSCAASGRTFRLYAMGWDRPAPGKERELVAAITRGGRTTYADSVKGRFTISRDNAKNTVYLQMNSLKPEDTAVYYCAARYVERHTDYYYWGQGTQVTVSS | low polyreactivity |
| QVQLVESGGGLVQAGGSLRLFCAASGITSSYYAMLWYRQAPGKERDLVADISQSGGSTYYADSVKGRFTISRDNAKNTVYLQMNSLKPEDTAVYYWAADTYWWSYLYDYWGQGTQVTVSS | high polyreactivity |
| QVQLVESGGGLVQAGGSLRLSCAASGSTFNYYAMGWYRQAHGTERELFAAITYRGGSTYYADSVKGRFTISRDNAKNTVYLHMNLLKPEDTAVYYCNARQVRYMYAQDEGYDYWGLGTQVTVSS | high polyreactivity |
| QVQLVESGGGLVQAGGSLRLSCAASGSIFPYYAMGGYRQAAGKERELVATITSRGGSTDYADYVKGRFTISRDNAKNTVYLQMNSLKREDTAVYYCAKEYRYYRRRYDYWGQGTQVTVSS | high polyreactivity |
| QVQLVESGGGLVQAGGSLRLSCAASGRTFYYYAMGWYRQAPGKERELVAAINTRGTSTYYADSVKGRFTISRDNAKNTVYLQMNSLKPEDTAVYYCAVDPYGDSWEDWFRNYYYGYDYWGQGTQVTVSS | low polyreactivity |
| QVQLAESGGGLVQAGGSLRLSCAASGRTFSQYGMGWYRQAPGKERELVARIRRSGGSTYYADSVKGRFTISRDNAKNTVYLQMNSLKPEDTAVYYCAARYYWFGQYQYNYWGQGTQVTVSS | high polyreactivity |
| QVQLVESGGGLVQAGGSLRLSCAASGRIFINNAMGWYRQAPGKERELVAAISSRGGSTYYADSVKGRFTISRDNAKKTVYLQMNSLKPEDTAVYYCAVDVYEPRYRRPFHHDYWGQGTQVTVSS | low polyreactivity |
